KR20220147765A (dated 2022)

B1: RB6 (antibody, V domains shown)
VH: EVQLLESGGGLVQPGGSLRLSCAASGFTFSSYDMSWVRQAPGKGLEWVSGISYSGGSTYYADSVKGRFTISRDNSKNTLYLQMNSLRAEDTAVYYCARDVNFVPLVTFDYWGQGTLVTVSS
VL: QSVLTQPPSASGTPGQRVTLSCTGSSSNIGSNSVTWYQQLPGTAPKLLIYDDNQRPSGVPDRFSGSKSGTSASLAISGLRSEDEADYYCGTWDYSLSAYVFGGGTKLTVL
notes: also called SARS-CoV-2 RBD 특이적 IgG 선별항체 RB6; clone RB6
B2: RD3 (antibody, V domains shown)
VH: EVQLLESGGGLVQPGGSLRLSCAASGFTFSDYAMSWVRQAPGKGLEWVSWIYSGSGNKYYADSVKGRFTISRDNSKNTLYLQMNSLRAEDTAVYYCARFPIARTSNSQSSYDGMDVWGQGTLVTVSS
VL: QSVLTQPPSASGTPGQRVTISCSGSSSNIGSNAVSWYQQLPGTAPKLLIYADNKRPSGVPDRFSGSKSGTSASLAISGLRSEDEADYYCGAWDSSLNAYVFGGGTKLTVL
notes: also called SARS-CoV-2 RBD 특이적 IgG 선별항체 RD3; clone RD3
B3: RD10 (antibody, V domains shown)
VH: EVQLLESGGGLVQPGGSLRLSCAASGFTFSDYAMSWVRQAPGKGLEWVSAIYPGGGSTYYADSVKGRFTISRDNSKNTLYLQMNSLRAEDTAVYYCARNLFGFDYWGQGTLVTVSS
VL: QSVLTQPPSASGTPGQRVTISCTGSSSNIGSNAVYWYQQLPGTAPKLLIYDDSNRPSGVPDRFSGSKSGTSASLAISGLRSEDEADYYCGSWDDSLSAYVFGGGTKLTVL
notes: also called SARS-CoV-2 RBD 특이적 IgG 선별항체 RD10; clone RD10

Each binder was assayed against T1, SARS-CoV S 단백질의 RBD 항원 (SARS-CoV, UniProt P59594 306-527) (assay: ELISA, 0.1 μg antigen coated, IgG4).
T1 construct: also called SARS-CoV RBD
B1: binds. B2: binds. B3: binds.
